Results published in the supplement of paper PMC9170038.

What was measured:
Conditions in all cases: FMN input: 0 or 200 uM; Eterna round: R93 (includes R88 designs)
MS2 coat protein [1] = assay: apparent KD of MS2 coat protein, switch ON state; designed switch direction (-1 OFF switch, 1 ON switch): 1; higher = weaker reporter binding
In short: (§1)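 Designed RNA switches were transcribed on-chip from Illumina sequencing clusters. They were then titrated with SNAP-549-labelled MS2 coat protein (twofold steps, 0.7 or 1.5 nM to 3 µM; 0.8–1.5 h to 10–20 min per step) in 100 mM Tris-HCl pH 7.5, 80 mM KCl, 4 mM MgCl2, without or with constant ligand. Apparent KD is the per-design median of normalised cluster binding-curve fits.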

MS2 coat protein [2] = assay: apparent KD of MS2 coat protein, switch OFF state (with FMN for OFF switches, without FMN for ON switches); designed switch direction (-1 OFF switch, 1 ON switch): 1; higher = weaker reporter binding
In short: as §1

MS2 coat protein [3] = assay: apparent KD of MS2 coat protein, switch ON state; designed switch direction (-1 OFF switch, 1 ON switch): -1; higher = weaker reporter binding
In short: as §1

MS2 coat protein [4] = assay: apparent KD of MS2 coat protein, switch OFF state (with FMN for OFF switches, without FMN for ON switches); designed switch direction (-1 OFF switch, 1 ON switch): -1; higher = weaker reporter binding
In short: as §1

Sequence	apparent KD of MS2 coat protein (MS2 coat protein [1])	apparent KD of MS2 coat protein (MS2 coat protein [2])	apparent KD of MS2 coat protein (MS2 coat protein [3])	apparent KD of MS2 coat protein (MS2 coat protein [4])
AUAUAUAUAAGGAAGGAUAUCCAAAAAUAAACAUGAGGAUCACCCAUGUCCAUAAAGAAUAAAUGGGAGAAGGUCCAUAUAUAUA [77%, More Tesla, 9]	24.2 nM	123 nM	–	–
AAAUUACAUGAGGAUCACCCAUGUAGCGACGUGACAGGAUAUGUGGGUGAAAAUAGCAUGACAGAAGGGUCCCGUA [SameState1 Malc#40]	57.8 nM	23.1 nM	–	–
AACAAUCUAUCUGAGGAUAUAUGUCAAAAGACAUGAGGAUCACCCAUGUAAAAACAUGAAAAAACAUAGAAGGCAGAUAGAUUGA [SS2: 1134]	41.5 nM	120 nM	–	–
AAAAGACAUGAGGAUCACCCAUGUAAAAACUUGGGAGGAUAUGCUUGGAAAACAUGCUAUGCAGAAGGCUCUAGUC [SS1 - 14]	78.3 nM	123 nM	–	–
ACAAAACAUGAGGAUCACCCAUGUCGACUAAAUCAAGGAUAUGGGAAUGCGAAAGCAAAGCCAGAAGGUGAGGUCC [Xeorarbiar]	294 nM	185 nM	–	–
AAUCCAACUAGUCAGGAUAUCAGGCGUAAGACAUGAGGAUCACCCAUGUCCUUAGUACAAGUAACUGAGAAGGGACAGGGCGACC [JR_SS002_Sub410]	74.9 nM	39.5 nM	–	–
AACAGUACAGGAUAUACAUGAGGAUCACCCAUGUGAAAAUUAAGUGGAGAACCACAGUGUAGAAGGGUACUGGA [Mat - Exclusion 3 - Eli mod - D52]	–	–	142 nM	49.8 nM
AAGAACUGAGGAUAUACAUGAAAGAAAGAAAAGAAAAGAAAACAUGAGGAUCACCCAUGUAGAAGGCAGAAGAA [EteRNA is fun!]	–	–	16.9 nM	14.4 nM
AAGGGACAUGAGGAUCACCCAUGUGAGGAUAUGACGUAAAGAAAGAAAGAAGAAAUCGUCAGAAGGCACACCAA [Mat - Exclusion 1 - Eli mod - D70]	–	–	70.6 nM	118 nM
AAGUGGGCAGGAUAUACAUGAGGAUCACCCAUGUAAAGAAAAGAAAGAUCCGAAGAAAGUAGAAGGGCCUGCAA [Mod 1 of Ex3 sub 3, by Tesla's Dusciple Round 1]	–	–	144 nM	137 nM
GGAAAACAUGAGGAUCACCCAUGUGAGGAUAUCGAUGUCCAAAAGAAAGUGCGGGACUCGAGAAGGCACUUGGA [salish99-ex1-36]	–	–	56.3 nM	45.8 nM
AAGAUGUGAGGAUAUGCUUGUCGUCACAAAAGUGAUGACGAGCAGAAGGCACAUGAGGAUCACCCAUGUAAAGA [Opal 26]	–	–	90.1 nM	147 nM
AUAAAGCGAGGAUAUACAUGAGGAUCACCCAUGUAAAUAAAUAGGAGAGCCACAAUAAGUAGAAGGUGCAAUAA [JR_Exc003_Sub008]	–	–	54.8 nM	46.5 nM
AAGAAGCAAGGAUAUACAUGAGGAUCACCCAUGUAAAAGAAAGAAAAGGGAAAGAAAAGUAGAAGGUGCAAAGA [Ruby 69]	–	–	43.6 nM	72.8 nM
CUCUAGUUAGGAUAUCGAAGAAAAGAAAAGAAAGAAAAGAACGAGAAGGAACAUGAGGAUCACCCAUGUAAGAA [EteRNA is fun!]	–	–	29.1 nM	28 nM
AAAAAGGCAGGAUAUACGAAACAGGGAAACCUGAAAGGGAAACAUGAGGAUCACCCAUGUAGAAGGGCCAAGAA [Clint Eastwood 64% 2]	–	–	48.3 nM	82 nM
AGCUAGACAGGAUAUACGUAAAUGUCGAAAGACGUAUAGGGACAUGAGGAUCACCCAUGUAGAAGGGUCUAGCA [Diamond 100]	–	–	22.7 nM	39.6 nM

Sequence	apparent KD of MS2 coat protein (MS2 coat protein [1])	apparent KD of MS2 coat protein (MS2 coat protein [2])	apparent KD of MS2 coat protein (MS2 coat protein [3])	apparent KD of MS2 coat protein (MS2 coat protein [4])
AAAAAACAAGGAUAUACAAAAAUAAAAAGAAUAAAGUGAAAACAUGAGGAUCACCCAUGUAGAAGGUGUAAAAA [Default title]	–	–	67 nM	44.8 nM
ACCUUACAUGAGGAUCACCCAUGUUAGGAUAUCUCGCUCUCGCAGUCACAGCGCAAGCAGAGAAGGGACACGGG [Maretien]	–	–	32.6 nM	36.6 nM
GUCGUGUGAGGAUAUGGAAAGUAGAAGUGGCGGUCGAAAACCUAGAAGGCACAUGAGGAUCACCCAUGUAAGAG [JR_Exc004_Sub1708]	–	–	57 nM	54.3 nM
AAAAAGUGAGGAUAUUCGGAAGGGAAAGCGCAAACCCAACCGAAGAAGGCACAUGAGGAUCACCCAUGUAAAAA [Ecls4-III 65% - Early G segment 1]	–	–	30.6 nM	35.2 nM
AACAGUACAGGAUAUACAUGAGGAUCACCCAUGUGAAAAUUAAGUGGAAAACCACAAUGUAGAAGGGUACUGGA [Mat - Exclusion 3 - Eli mod - D49]	–	–	46.1 nM	219 nM
CUCUAGUAAGGAUAUCGAAGAAAAGAAAAGAAAGAAAAGAACGAGAAGGUACAUGAGGAUCACCCAUGUAAGAA [EteRNA is fun!]	–	–	34.5 nM	19 nM
CCUGUGUGAGGAUAUGGUAAAAAAAAAAAAAAAUAGCUCCUCCAGAAGGCACAUGAGGAUCACCCAUGUCGUGG [Jolly's Folly 16 - Jieux - Exclusion 4]	–	–	37.6 nM	73.9 nM
AACUGACAUGAGGAUCACCCAUGUCAGGAUAUGCUUCAUAAAAUAAAAAUAAAAUGAUGCAGAAGGGACAUGAA [Design 27 :P Sub-opt 3]	–	–	15.4 nM	13.5 nM
AGGAUGUCAGGAUAUGUGUAAAGAAUAAAACAAAUAACAACACAGAAGGGACAUGAGGAUCACCCAUGUUAAAA [May 36]	–	–	44.9 nM	54 nM
AACAGUACAGGAUAUACAUGAGGAUCACCCAUGUGACAUAAAUAAAACAAAAAUAAAAGUAGAAGGGUACUGGA [Ruby 43]	–	–	28.5 nM	60 nM
AGUAUGCGAGGAUAUACAUGAGGAUCACCCAUGUGAGAGAUAUGAGUGAGAAAGACAAGUAGAAGGCGCGUACA [JL Lego Mod 26]	–	–	99.8 nM	11.4 nM
AAAAAACAUGAGGAUCACCCAUGUGAGGAUAUGCGAAACAAAAAAAACAAAAACAAAAGCAGAAGGCACAAAAA [Amethyst 33]	–	–	25 nM	25.7 nM
AGCAGUACAGGAUAUACAUGAGGAUCACCCAUGUGAAAAAAAAGUGGCGUACCACAAAGUAGAAGGGUACUGCA [Mat - Exclusion 3 - JL mod - D32]	–	–	35.4 nM	108 nM
GUGUACAGAGGAUAUACAUGAGCUAGGAAACUAGCAGGAUCACAUGAGGAUCACCCAUGUAGAAGGCUGUACAC [Ex2: 731]	–	–	42.5 nM	15.5 nM
AAUUAGGUAGGAUAUACAUGAGGAUCACCCAUGUGGGAAAAAAACUACGAAAAAGAAUGUAGAAGGACCUAAAA [Mat - Exclusion 3 - Mayanna mod - D104]	–	–	20.3 nM	96.5 nM
AACAUGUCAGGAUAUGUGGAAAGAAUAAAAGAAAUAAGAACACAGAAGGGACAUGAGGAUCACCCAUGUCAACA [May 31]	–	–	27.7 nM	25.7 nM
AAAACGGCAGGAUAUACAGAUGAGAACUCGACCGAAAAAAAACAUGAGGAUCACCCAUGUAGAAGGGCCAAAAA [Ex2 Malc#6]	–	–	30.1 nM	61.9 nM
